B1: C228: E. coli EPSPS C-terminal fragment, residue 228 to C-terminus (protein, UniProt P0A6D3 228-427, looked up, fragment)
chain: GQSYQSPGTYLVEGDASSASYFLAAAAIKGGTVKVTGIGRNSMQGDIRFADVLEKMGATICWGDDYISCTRGELNAIDMDMNHIPDAAMTIATAALFAKGTTTLRNIYNWRVKETDRLFAMATELRKVGAEVEEGHDYIRITPPEKLNFAEIATYNDHRMAMCFSLVALSDTPVTILDPKCTAKTFPDYFEQLARISQAA
B2: C235: E. coli EPSPS C-terminal fragment, residue 235 to C-terminus (protein, UniProt P0A6D3 235-427, looked up, fragment)
chain: GTYLVEGDASSASYFLAAAAIKGGTVKVTGIGRNSMQGDIRFADVLEKMGATICWGDDYISCTRGELNAIDMDMNHIPDAAMTIATAALFAKGTTTLRNIYNWRVKETDRLFAMATELRKVGAEVEEGHDYIRITPPEKLNFAEIATYNDHRMAMCFSLVALSDTPVTILDPKCTAKTFPDYFEQLARISQAA
B3: C225: E. coli EPSPS C-terminal fragment, residue 225 to C-terminus (protein, UniProt P0A6D3 225-427, looked up, fragment)
chain: VKGGQSYQSPGTYLVEGDASSASYFLAAAAIKGGTVKVTGIGRNSMQGDIRFADVLEKMGATICWGDDYISCTRGELNAIDMDMNHIPDAAMTIATAALFAKGTTTLRNIYNWRVKETDRLFAMATELRKVGAEVEEGHDYIRITPPEKLNFAEIATYNDHRMAMCFSLVALSDTPVTILDPKCTAKTFPDYFEQLARISQAA
B4: N227: E. coli EPSPS N-terminal fragment, N-terminus to residue 227 (protein, UniProt P0A6D3 1-227, looked up, fragment)
chain: MESLTLQPIARVDGTINLPGSKSVSNRALLLAALAHGKTVLTNLLDSDDVRHMLNALTALGVSYTLSADRTRCEIIGNGGPLHAEGALELFLGNAGTAMRPLAAALCLGSNDIVLTGEPRMKERPIGHLVDALRLGGAKITYLEQENYPPLRLQGGFTGGNVDVDGSVSSQFLTALLMTAPLAPEDTVIRIKGDLVSKPYIDITLNLMKTFGVEIENQHYQQFVVKG
B5: N224: E. coli EPSPS N-terminal fragment, N-terminus to residue 224 (protein, UniProt P0A6D3 1-224, looked up, fragment)
chain: MESLTLQPIARVDGTINLPGSKSVSNRALLLAALAHGKTVLTNLLDSDDVRHMLNALTALGVSYTLSADRTRCEIIGNGGPLHAEGALELFLGNAGTAMRPLAAALCLGSNDIVLTGEPRMKERPIGHLVDALRLGGAKITYLEQENYPPLRLQGGFTGGNVDVDGSVSSQFLTALLMTAPLAPEDTVIRIKGDLVSKPYIDITLNLMKTFGVEIENQHYQQFV
B6: N234: E. coli EPSPS N-terminal fragment, N-terminus to residue 234 (protein, UniProt P0A6D3 1-234, looked up, fragment)
chain: MESLTLQPIARVDGTINLPGSKSVSNRALLLAALAHGKTVLTNLLDSDDVRHMLNALTALGVSYTLSADRTRCEIIGNGGPLHAEGALELFLGNAGTAMRPLAAALCLGSNDIVLTGEPRMKERPIGHLVDALRLGGAKITYLEQENYPPLRLQGGFTGGNVDVDGSVSSQFLTALLMTAPLAPEDTVIRIKGDLVSKPYIDITLNLMKTFGVEIENQHYQQFVVKGGQSYQSP
B7: N238: E. coli EPSPS N-terminal fragment, N-terminus to residue 238 (protein, UniProt P0A6D3 1-238, looked up, fragment)
chain: MESLTLQPIARVDGTINLPGSKSVSNRALLLAALAHGKTVLTNLLDSDDVRHMLNALTALGVSYTLSADRTRCEIIGNGGPLHAEGALELFLGNAGTAMRPLAAALCLGSNDIVLTGEPRMKERPIGHLVDALRLGGAKITYLEQENYPPLRLQGGFTGGNVDVDGSVSSQFLTALLMTAPLAPEDTVIRIKGDLVSKPYIDITLNLMKTFGVEIENQHYQQFVVKGGQSYQSPGTYL

These molecules were tested on aroA gene-mutant E. coli strain AB2829 (assay: In vivo complementation: growth on solid M63 restrictive medium). Settings: C-terminal fragment alone.
Format: cell-based
Parameters: key: −: failed to grow; +: able to grow
Text: The pKU2100 plasmid constructed as described above and corresponding pACYC1184 plasmid were introduced separately or together into the strain AB2829 deficient in E. coli aroA gene. Then, the strain was streaked on solid M63 restrictive medium and cultured overnight to determine the growth.
In order to test if EPSPS achieves fragment complementation after in vivo expression, genes encoding EPSPS N-terminal peptides were constructed into pACYC184, and genes encoding EPSPS C-terminal peptides were constructed into pBR322 (see the section Materials and Methods for the detailed construction method). Afterwards, these plasmids were introduced into aroA gene-mutant E. coli strain AB2829. EPSPS activity of the protein fragments encoded by these genes was determined by the growth of the strains on M63 restrictive medium.
The pACYC184 and pBR322 plasmids are able to be expressed in the same bacterial cell since they have replicons p15A and ColE1 respectively. In this regard, a pACYC184 plasmid was co-introduced into aroA gene-mutant E. coli strain AB2829 together with a corresponding pKU2100 plasmid, wherein the N-terminal peptide encoded by the pACYC184 plasmid and C-terminal peptide encoded by the pKU2100 plasmid are the two fragments divided at the same site from EPSPS. The resulting strains are streaked on M63 restrictive medium, and cultured at 37° C.
The pBR322 plasmids constructed in section 3.5 a and their relevant pACYC1184 plasmids constructed in section 3.5 b were introduced respectively or together into E. coli strain AB2829 deficient in aroA gene. Then the strains were streaked on solid M63 restrictive medium and cultured overnight to test the growth.

| Molecule | complementation condition, C-terminal |
| --- | --- |
| B1 | − |
| B2 | − |
| B3 | − |

Same assay, conditions: N-terminal fragment alone

| Molecule | complementation condition, N-terminal |
| --- | --- |
| B4 | − |
| B5 | − |
| B6 | − |
| B7 | − |

— patent US8936925B2, “Reconstitution of 5-enolpyruvylshikimate-3-phosphate synthase activity by fragment complementation” (priority 2004, dated 2015)
